Measurements reported in publication PMC4718742 (Nature chemical biology, 2015).
Each block holds one binder with its values, some of them ahead of it.

Key:
human CypA (1–165) [1] = biological target: T1, human CypA (1–165) (human, UniProt P62937 1-165); assay: NMR titration
human CypA (1–165) [2] = biological target: T1, human CypA (1–165)

- binding result (human CypA (1–165) [1]): binds
Binder: PEPGPYAQPS [CrkII peptide (Pro216-Ser225)]

- fold higher affinity than wild-type CrkII (human CypA (1–165) [2]): ~20 fold
B1: CrkII^P218F (natural protein)
chain: MAGNFDSEERSSWYWGRLSRQEAVALLQGQRHGVFLVRDSSTSPGDYVLSVSENSRVSHYIINSSGPRPPVPPSPAQPPPGVSPSRLRIGDQEFDSLPALLEFYKIHYLDTTTLIEPVSRSRQGSGVILRQEEAEYVRALFDFNGNDEEDLPFKKGDILRIRDKPEEQWWNAEDSEGKRGMIPVPYVEKYRPASASVSALIGGNQEGSHPQPLGGPEFGPYAQPSVNTPLPNLQNGPIYARVIQKRVPNAYDKTALALEVGELVKVTKINVSGQWEGECNGKRGHFPFTHVRLLDQQNP
